Series [1] is described as follows: in vivo. The conditions noted are these: male, athymic nude, mouse, intravenous, total radioactivity, 2 h post injection, n = 4. The protocol:
(§1) For in vivo evaluation, athymic nude mice-bearing bilateral PC-3 PIP/flu (PSMA^+/PSMA^–) tumor xenografts were used (Figure ).
(§2) 5.1.1 Urine metabolite analysis
(§3) Metabolite analysis was performed by analyzing aliquots of 100 µL of mouse urine collected during biodistribution studies. If the collected urine volume was less than 100 µL, 1X DPBS was added in order to bring it up to a final volume of 100 µL. In cases where the radioactivity present in urine decayed to levels too low for detection by HPLC, fractions eluted from the radioHPLC were collected every 30 seconds, and the amount of radioactivity was estimated via gamma counting (Hidex Automatic Gamma Counter). The chromatogram was then reconstructed by plotting the recorded counts per minute recorded for each fraction […]
(§4) 5.2 In vitro optical imaging
(§5) Tumor tissues were harvested from male, nude, athymic mice bearing xenografts from PC3-PIP (PSMA+) and PC3-flu (PSMA-) were fixed for (24) hours in 10% neutral buffered formalin, processed and embedded into paraffin blocks. Tissues were sectioned at 5µm, dried and then deparaffinized with a 25-minute oven bake at 60°C, followed by a series of xylene and alcohol washes
(§6) Antigens were prepared in PerkinElmer’s 1X Antigen Retrieval pH 9.0 (AR900250ML) for 8 minutes in the microwave. Tissue sections were blocked with 1X Antibody Diluent/Block buffer (Akoya).
(§7) Ab-PSMA, natEu-pepa-pic2-C-Hex-KuE and DAPI staining.
(§8) Tissues were stained with Ab-PSMA (Ventana 760-6076; 11.75 µg/mL; 100uL per slide) for 30 minutes at room temperature. Slides were washed with TBS-T and secondary goat anti-rabbit was applied for 10 minutes at room temperature. Slides were washed with TBS-T and Akoya’s Opal dye 520 was applied for 10 minutes at room temperature. Antigen retrieval and blocking steps were performed again.
(§9) An aqueous solution of natEu-pepa-pic2-C-Hex-KuE (10 µM) was diluted at 1:1 with 1X Diluent/Block (Akoya) and 100 µL were applied per slide for 2 hours at room temperature. For DAPI staining, DAPI working solution (Akoya) was applied for 10 minutes at room temperature before mounting with ProLong™ Gold Antifade Mountant. Slides were imaged by Nuance Multispectral Scope at 20x objective.
(§10) 5.3 In vivo biodistribution in PSMA +/- mice models, PET-CT and SPECT imaging.
(§11) Male, nude, athymic mice were purchased from Jackson Laboratory. Ten days preceding the imaging study, mice were implanted with 1 × 10^6 cells (PC-3 PIP on the right, PC-3 flu on the left shoulder) in 100 µL of a 1:2 mixture of DPBS 1X/matrigel matrix subcutaneously.
(§12) A solution of 100 µL of labeled radiotracer was administered via tail vein injection into 8–10-week-old male nude mice (n = 4 per cohort) bearing PSMA+/- tumors.
(§13) For biodistribution studies, mice were euthanized at 2 hours (n=4) post-injection of the radio tracer. Organs were extracted, intestinal content removed, and activity assessed via a gamma counter. Biodistribution analysis values are represented as percentage of injected dose per gram of organ weight (% ID/g).

Series [2] has as its system PC-3 PIP/flu (PSMA+/PSMA–) tumor xenografts. As to the kind of experiment: in vivo. To be noted: 2 h post injection, n = 4, listed as [161Tb]TbIII-pepa-pic2-C-Hex-KuE. The protocol: as §1, §2, §3, §4, §5, §6, §7, §8, §9, §10, §11, §12, §13
Series [3] has the same test system. The conditions noted are these: biodistribution 2 h p.i. and SPECT 0.5-25 h.
Description: Following radiochemical labeling and formulation in PBS, [^177Lu]­Lu-pepa-pic2-C-hex-KuE and [^161Tb]­Tb-pepa-pic2-C-hex-KuE were evaluated by single point biodistribution (2 h p.i.) and serial SPECT imaging at 0.5, 1, 1.5, 4, and 25 h in direct comparison with the clinically validated radiopharmaceutical [^177Lu]­Lu-PSMA-617 as well as [^161Tb]­Tb-PSMA-617 (Figure d–e, Supporting Information, Figures S52–S55, and Table S2).
Representative PET-CT (Y-86) or SPECT (Lu-177, Tb-161) images were acquired at different time points starting as early as 0.5 h and up to 25-hours post administration of radiotracer. Mice were initially anesthetized with isoflurane gas at 4% isoflurane in oxygen and maintained during scans at 2.0%. PET-CT and SPECT images were normalized to units of percentage of injected dose per cubic centimeter and presented as maximum intensity projected scan (MIPS) images.
PET-CT scans were acquired in a Siemens Inveon Hybrid MicroPET/CT Scanner (Siemens Medical Solutions USA, Inc., Knoxville, TN), and image processing and region of interest (ROI) analysis conducted using the Inveon Research Workstation analysis software. ROI analysis of the PET/CT images was used to estimate tracer uptake in major organs or tissues, and quantitative results are given as percentage of injected dose per cubic centimeter (%ID/cc). […]
For series [4] the following is noted: 277 nm; ref 11 (SI); cited from earlier work.

On to `COCCOCCOCCOc1ccc(C#Cc2cc(CN3CCN(Cc4cccc(C(=O)O)n4)CCN(Cc4cc(SC[C@H](N)C(=O)NCCCCCC(=O)NCCCC[C@H](NC(=O)N[C@@H](CCC(=O)O)C(=O)O)C(=O)O)cc(C(=O)O)n4)CC3)nc(C(=O)O)c2)cc1` [[161Tb]Tb-pepa-pic2-C-Hex-KuE, metal not drawn], for which, in series [1] (PSMA- tumor, Tumor -), the tissue uptake (as a rule, the share of the injected amount in each gram of the tissue) at 2 h worked out at 0.7 ± 1.59 %ID/g. In series [2], this compound displayed a Blood of 0.45 ± 0.06 % ID/g, a Bone of 0.24 ± 0.03 % ID/g, a Heart of 0.21 ± 0.03 % ID/g and a Kidney of 17.89 ± 2.70 % ID/g. Further, in series [2], the “Large Intestine” value was 0.98 ± 1.44 % ID/g, the Liver is on record as 0.64 ± 0.09 % ID/g, the Lungs came out at 0.50 ± 0.07 % ID/g and the Muscle amounted to 0.11 ± 0.03 % ID/g. Further, in series [2], the “Small Intestine” value was 0.33 ± 0.37 % ID/g and the Spleen came out at 0.50 ± 0.09 % ID/g. For the same compound, the “Tumor +” value in series [2] (PSMA+ tumor) came to 7.33 ± 1.59 % ID/g.

With `COCCOCCOCCOc1ccc(C#Cc2cc(CN3CCN(Cc4cccc(C(=O)O)n4)CCN(Cc4cc(SC[C@H](N)C(=O)NCCCCCC(=O)NCCCC[C@H](NC(=O)N[C@@H](CCC(=O)O)C(=O)O)C(=O)O)cc(C(=O)O)n4)CC3)nc(C(=O)O)c2)cc1` [[177Lu]Lu-pepa-pic2-C-Hex-KuE, metal not drawn], the tissue uptake at 2 h in series [1] (PSMA+ tumor, Tumor +, PSMA+ tumor) was determined as 4.57 ± 0.9 %ID/g; in series [1] (blood) it was 0.3 ± 0.1 %ID/g; in series [1] (bone) it was 0.25 ± 0.02 %ID/g; in series [1] (heart) it was 0.19 ± 0.07 %ID/g; in series [1] (kidney), 25.9 ± 8.51 %ID/g; in series [1] (large intestine), 0.49 ± 0.27 %ID/g. Moreover, the tissue uptake at 2 h in series [1] (liver) is 0.5 ± 0.05 %ID/g; in series [1] (lungs), 0.47 ± 0.26 %ID/g; in series [1] (muscle), 0.11 ± 0.05 %ID/g; in series [1] (small intestine), 0.33 ± 0.27 %ID/g; in series [1] (spleen) it was 0.53 ± 0.24 %ID/g. Besides, in series [3], the “uptake of activity in the PSMA-expressing tumor” value is listed as “persistent, statistically significant uptake”.

In the case of PSMA-617, the ε277 in series [4] is 4268 M⁻¹ cm⁻¹.

The record behind these values is publication PMC12703665, “A Trifunctional, Rare-Earth Theranostic Chelator Platform to Enable Diagnostic Nuclear Imaging, Surgical Resection, and Radiotherapy” (Journal of the American Chemical Society, 2025).
